The results in this text go back to PMC8266594 (Nucleic Acids Research, 2021).

First the molecules themselves.
B1: RnlAΔ1–91 (TBP2-HEPN) truncated RnlA, N-terminally His-tagged (domain or fragment, Escherichia coli, UniProt P52129 92-357, looked up)
chain: INPAEFEQVNMVLQGFVETSVLPVLELSADESHIEFREHSRNAHTVVWKIISTSYQDELTVSLHITTGKLQIQGRPLSCYRVFTFNLAALLDLQGLEKVLIRQEDGKANIVQQEVARTYLQTVMADAYPHLHVTAEKLLVSGLCVKLAAPDLPDYCMLLYPELRTIEGVLKSKMSGLGMPVQQPAGFGTYFDKPAAHYILKPQFAATLRPEQINIISTAYTFFNVERHSLFHMETVVDASRMISDMARLMGKATRAWGIIKDLYIV
B2: His-RnlA (wild-type RnlA toxin, N-terminally His-tagged) (enzyme)
chain: MTIRSYKNLNLVRANIETESRQFIENKNYSIQSIGPMPGSRAGLRVVFTRPGVNLATVDIFYNGDGSTTIQYLTGANRSLGQELADHLFETINPAEFEQVNMVLQGFVETSVLPVLELSADESHIEFREHSRNAHTVVWKIISTSYQDELTVSLHITTGKLQIQGRPLSCYRVFTFNLAALLDLQGLEKVLIRQEDGKANIVQQEVARTYLQTVMADAYPHLHVTAEKLLVSGLCVKLAAPDLPDYCMLLYPELRTIEGVLKSKMSGLGMPVQQPAGFGTYFDKPAAHYILKPQFAATLRPEQINIISTAYTFFNVERHSLFHMETVVDASRMISDMARLMGKATRAWGIIKDLYIV
B3: R255A RnlA, N-terminally His-tagged (enzyme, Escherichia coli, UniProt P52129 1-357, looked up)
chain: B2 chain with R255A
B4: D245R RnlA, N-terminally His-tagged (enzyme, Escherichia coli, UniProt P52129 1-357, looked up)
chain: B2 chain with D245R

Where a chain is given by its changes, count along the chain named. In names and notes the source's numbering stands.

This data set deals with the molecule itself. As to the kind of experiment: SAXS.
Regarding B1, the “stoichiometry N” value worked out at 2.
On to B2, for which the “stoichiometry N” value came to 2.
Take B3: the “stoichiometry N” value amounted to 2.
B4: the “stoichiometry N” value is 2.

One may read the stoichiometry N as the number of molecules, sites or subunits per partner or assembly.
